US20190112340A1

Experiments:
[1] = molecular target: RSV F DS-Cav1 (human RSV subtype A (strain A2)) (UniProt P03420); experiment: BLI (Octet), F on Ni-NTA tips, Fab in solution
[2] = molecular target: RSV F sc9 DS-Cav1 (human RSV subtype A (strain A2)); experiment: BLI (Octet), F on Ni-NTA tips, Fab in solution
[3] = molecular target: RSV F sc9-10 DS-Cav1 (human RSV subtype A (strain A2)); experiment: BLI (Octet), F on Ni-NTA tips, Fab in solution
[4] = molecular target: RSV F sc9-9 DS-Cav1 (human RSV subtype A (strain A2)) (UniProt P03420); experiment: BLI (Octet), F on Ni-NTA tips, Fab in solution
[5] = molecular target: sc10 DS-Cav1; experiment: BLI (Octet), F on Ni-NTA tips, Fab in solution
[6] = molecular target: sc11 DS-Cav1; experiment: BLI (Octet), F on Ni-NTA tips, Fab in solution
[7] = molecular target: sc9 DS-Cav1-105Q; experiment: BLI (Octet), F on Ni-NTA tips, Fab in solution
[8] = molecular target: sc9-10 A DS-Cav1 A149C, Y458C; experiment: BLI (Octet), F on Ni-NTA tips, Fab in solution
[9] = molecular target: sc9-10 DS-Cav1 A149C, Y458C S46G-E92D-S215P-K465Q (A2); experiment: BLI (Octet), F on Ni-NTA tips, Fab in solution
[10] = molecular target: sc9-10 DS-Cav1 A149C, Y458C S46G-N67I-E92D-S215P-K465Q (A2); experiment: BLI (Octet), F on Ni-NTA tips, Fab in solution
[11] = molecular target: sc9-10 DS-Cav1 A149C, Y458C S46G-S215P-K465Q (A2); experiment: BLI (Octet), F on Ni-NTA tips, Fab in solution
[12] = molecular target: sc9-10 DS-Cav1 N183GC, N428C S46G-N67I-E92D-S215P-K465Q (A2); experiment: BLI (Octet), F on Ni-NTA tips, Fab in solution
[13] = molecular target: sc9-10 DS-Cav1 N183GC,N428C; experiment: BLI (Octet), F on Ni-NTA tips, Fab in solution
[14] = molecular target: sc9-10 DS-Cav1 Q98C, Q361C L95M-I221M-R429K (B18537); experiment: BLI (Octet), F on Ni-NTA tips, Fab in solution
[15] = molecular target: sc9-10 DS-Cav1 Q98C, Q361C S46G-E92D-L95M-S215P-I217P-I221M-R429K-K465Q (Long (VR26)); experiment: BLI (Octet), F on Ni-NTA tips, Fab in solution
[16] = molecular target: sc9-19 DS-Cav1; experiment: BLI (Octet), F on Ni-NTA tips, Fab in solution
[17] = molecular target: sc9-24 DS-Cav1; experiment: BLI (Octet), F on Ni-NTA tips, Fab in solution
[18] = molecular target: sc8 DS-Cav1; experiment: BLI (Octet), F on Ni-NTA tips, Fab in solution
[19] = molecular target: bRSV F 391-2 DS-Cav1 (bovine RSV, strain 391-2) (UniProt P22167); experiment: Fab binding to purified bRSV F trimer (Octet BLI as in Example 1)
[20] = molecular target: bRSV F 391-2 sc9 DS-Cav1 Q98C Q361C (bovine RSV, strain 391-2) (UniProt P22167); experiment: as above
[21] = molecular target: bRSV F ATue51908 DS-Cav1 (bovine RSV, strain ATue51908) (UniProt P22167); experiment: as above
[22] = molecular target: bRSV F ATue51908 sc9-10 DS-Cav1 A149C Y458C (bovine RSV, strain ATue51908 (NP_048055.1)); experiment: as above
[23] = molecular target: bRSV F RB94 DS-Cav1 (bovine RSV, strain RB94) (UniProt P23728); experiment: as above
[24] = molecular target: bRSV F strain 391-2 sc9-10, DS-Cav1, Q98C-Q361C (bovine RSV, strain 391-2); experiment: as above
[25] = molecular target: RSV F DS-Cav1 (human RSV subtype A (strain A2)) (UniProt P03420); experiment: ELISA after 1 week at 4 °C
[26] = molecular target: RSVF Cav1only; experiment: ELISA after 1 week at 4 °C
[27] = molecular target: RSVF dFP; experiment: ELISA after 1 week at 4 °C
[28] = molecular target: sc9-10 A149C Y458C Long CAV1only; experiment: ELISA after 1 week at 4 °C
[29] = molecular target: sc9-10 Cav1only 100-360; experiment: ELISA after 1 week at 4 °C
[30] = molecular target: sc9-10 Cav1only 100-361; experiment: ELISA after 1 week at 4 °C
[31] = molecular target: sc9-10 Cav1only 100-362; experiment: ELISA after 1 week at 4 °C
[32] = molecular target: sc9-10 Cav1only 146-458; experiment: ELISA after 1 week at 4 °C
[33] = molecular target: sc9-10 Cav1only 369-455; experiment: ELISA after 1 week at 4 °C
[34] = molecular target: sc9-10 Cav1only 98-360; experiment: ELISA after 1 week at 4 °C
[35] = molecular target: sc9-10 Cav1only 98-361; experiment: ELISA after 1 week at 4 °C
[36] = molecular target: sc9-10 Cav1only 98-362; experiment: ELISA after 1 week at 4 °C
[37] = molecular target: sc9-10 Cav1only 99-360; experiment: ELISA after 1 week at 4 °C
[38] = molecular target: sc9-10 Cav1only 99-361; experiment: ELISA after 1 week at 4 °C
[39] = molecular target: sc9-10 Cav1only 99-362; experiment: ELISA after 1 week at 4 °C
[40] = molecular target: sc9-10 Cav1only; experiment: ELISA after 1 week at 4 °C
[41] = molecular target: sc9-10 N183GC N428C Long CAV1only; experiment: ELISA after 1 week at 4 °C
[42] = molecular target: RSV F DS-Cav1 (human RSV subtype A (strain A2)) (UniProt P03420); experiment: BLI (Octet), antibody reactivity over time at 60 °C
[43] = molecular target: sc9-10 A DS-Cav1 A149C, Y458C; experiment: as above
[44] = molecular target: sc9-10 DS-Cav1 A149C, Y458C S46G-E92D-S215P-K465Q (A2); experiment: as above
[45] = molecular target: sc9-10 DS-Cav1 A149C, Y458C S46G-N67I-E92D-S215P-K465Q (A2); experiment: as above
[46] = molecular target: sc9-10 DS-Cav1 A149C, Y458C S46G-S215P-K465Q (A2); experiment: as above
[47] = molecular target: sc9-10 DS-Cav1 N183GC, N428C S46G-N67I-E92D-S215P-K465Q (A2); experiment: as above
[48] = molecular target: sc9-10 DS-Cav1 N183GC,N428C; experiment: as above

With 5C4 (Fab) the Kd [1] was 13 nM, the Kd [2] was 31.3 nM and the Kd [3] was 26.2 nM. For the same substance, the Kd [4] was 17.9 nM, the Kd [5] was 38.1 nM and the Kd [6] was 58.8 nM. For the same substance, the Kd [7] was 28.8 nM, the Kd [8] was 32.1 nM and the Kd [9] was 315 nM. The Kd [10] was 127 nM, the Kd [11] was 92.2 nM and the Kd [12] was 79.7 nM. The Kd [13] was 14 nM, the Kd [14] was 101 nM and the Kd [15] was 35.8 nM. It also gave a Kd [16] of 22.6 nM and a Kd [17] of 20.8 nM.

AM14 Fab gave a Kd [1] of 3.3 nM, a Kd [2] of 33.1 nM and a Kd [3] of 6.6 nM. It also gave a Kd [4] of 3.3 nM, a Kd [18] of 1330 nM and a Kd [7] of 46.2 nM. It also gave a Kd [8] of 6.3 nM, a Kd [9] of 15.9 nM and a Kd [10] of 1 nM. The Kd [11] was 35.1 nM, the Kd [12] was 2210 nM and the Kd [13] was 787 nM. For the same substance, the Kd [14] was 18.5 nM, the Kd [15] was 33.9 nM and the Kd [16] was 25.6 nM. For the same substance, the Kd [17] was 25.1 nM, the Kd [19] was 1.8 nM and the Kd [20] was 8.6 nM. It also gave a Kd [21] of 4.8 nM, a Kd [22] of 12.8 nM and a Kd [23] of 4.9 nM. For the same substance, the Kd [24] was 12.8 nM.

For AM14 antibody, the ELISA signal (antigenicity) [25] was 1.71, the ELISA signal (antigenicity) [26] was 2.81 and the ELISA signal (antigenicity) [27] was 0.05. It also gave an ELISA signal (antigenicity) [28] of 0.211, an ELISA signal (antigenicity) [29] of 0.344 and an ELISA signal (antigenicity) [30] of 0.0969. It also gave an ELISA signal (antigenicity) [31] of 0.0541, an ELISA signal (antigenicity) [32] of 0.102 and an ELISA signal (antigenicity) [33] of 0.0785. It also gave an ELISA signal (antigenicity) [34] of 0.199, an ELISA signal (antigenicity) [35] of 0.356 and an ELISA signal (antigenicity) [36] of 0.516. It also gave an ELISA signal (antigenicity) [37] of 0.0553, an ELISA signal (antigenicity) [38] of 2.64 and an ELISA signal (antigenicity) [39] of 0.805. For the same substance, the ELISA signal (antigenicity) [40] was 3.31, the ELISA signal (antigenicity) [41] was 0.0514 and the T1/2 of AM14 reactivity at 60 °C [42] was 1.4 h. For the same substance, the T1/2 of AM14 reactivity at 60 °C [43] was 7.8 h, the T1/2 of AM14 reactivity at 60 °C [44] was 8.3 h and the T1/2 of AM14 reactivity at 60 °C [45] was 7.5 h. For the same substance, the T1/2 of AM14 reactivity at 60 °C [46] was 6 h, the T1/2 of AM14 reactivity at 60 °C [47] was 27.1 h and the T1/2 of AM14 reactivity at 60 °C [48] was 33.8 h.

For AM22 (Fab), the Kd [1] was < 0.01 nM, the Kd [2] was < 0.01 nM and the Kd [3] was < 0.01 nM. The Kd [4] was 2.8 nM, the Kd [5] was 0.3 nM and the Kd [6] was 1.6 nM. For the same substance, the Kd [18] was 3.9 nM, the Kd [7] was < 0.01 nM and the Kd [8] was 0.1 nM. For the same substance, the Kd [9] was 0.3 nM, the Kd [10] was 0.2 nM and the Kd [11] was 0.5 nM. It also gave a Kd [12] of 0.4 nM, a Kd [13] of 0.2 nM and a Kd [14] of 0.1 nM. The Kd [15] was 0.1 nM, the Kd [16] was 0.06 nM and the Kd [17] was 0.3 nM.
